Reference: US20240218065A1 (SHENGHE CHINA BIOPHARMACEUTICAL, published 2024)
Blank lines part the entries; values can stand above or below the binder they belong to.

What was measured:
[1] = biological target: T1, Human-NKP30-His (Kactus, cat: NKP-HM430) (human, UniProt O14931 19-138, limits assumed); assay: ELISA: Human-NKP30-His coated at 0.2 µg/mL, antibody titrated 3-fold from 10 µg/mL (7 points), HRP goat anti-human IgG-Fc, OD450-OD570
T1 construct: also called NKP30 protein; NKP30-his protein; not shown: His tag
T1 sequence (looked up): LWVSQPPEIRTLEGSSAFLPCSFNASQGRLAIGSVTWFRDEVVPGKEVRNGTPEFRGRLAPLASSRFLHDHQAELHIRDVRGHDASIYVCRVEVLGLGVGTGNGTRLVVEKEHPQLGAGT
Protocol: Human-NKP30-His (Kactus, cat: NKP-HM430) was diluted to 0.2 μg/mL with PBS buffer at pH 7.4, added into the 96-well ELISA plate at 100 μL per well, coated overnight at 4° C., and blocked with 1% BSA blocking solution for 1 hour. The plate was washed 3 times with PBST, and the constructed expressing antibody was diluted to 10 μg/mL with 0.5% BSA sample diluent as the starting concentration, and then diluted by 3-fold gradient (7 gradients in total). A negative control (blank well and IgG1 isotype control) and a positive control were set, and the positive control was the NKP30 humanized antibody (sequence shown in SEQ ID No. 28), and incubated at 37° C. for 1 h at 100 μL per well. The plate was washed 3 times with PBST, and then HRP-labelled goat anti-human IgG-Fc was diluted with the sample diluent at 1:20000. 100 μL was added into each well, and incubated at room temperature for 1 hour. The plate was washed 4 times with PBST, and 100 μL of TMB substrate was added into each well, and incubated at room temperature without light for 10 minutes. 100 μL of 1 M HCl solution was added into each well to terminate the color development reaction. The absorbance value of each well in the 96-well plate was determined by selecting the wavelength of 450 nm and the reference wavelength of 570 nm on a multifunctional enzyme marker, and the absorbance value (OD)=OD₄₅₀ₙₘ−OD₅₇₀ₙₘ. The logarithm of the concentration of the constructed antibody was taken as the abscissa, and the measured absorbance value of each well was taken as the ordinate, and the Sigmoidaldose-response (Variable Slope) method (GraphPad Prism software, GraphPad Software, San Diego, California) was selected for nonlinear regression to obtain the binding curve of the target antibody to NKP30.

[2] = biological target: T2, huCD24-humanFC (Acro, cat: CD4-H5254) (human, UniProt P25063 27-59); assay: Bridging ELISA: huCD24-humanFC coated at 0.3 µg/mL, antibody titrated 3-fold from 20 µg/mL, then NKP30-his at 0.3 µg/mL, HRP anti-His antibody, OD450-OD570
T2 construct: also called CD24 protein; not shown: human Fc
T2 chain (looked up): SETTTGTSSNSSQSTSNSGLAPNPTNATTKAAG
Protocol: The huCD24-humanFC (Acro, cat: CD4-H5254) was diluted to 0.3 μg/mL with PBS buffer at pH 7.4, added into the 96-well ELISA plate at 100 μL per well, coated overnight at 4° C., and blocked with 1% BSA blocking solution for 1 hour. The plate was washed 3 times with PBST, and the purified antibody was diluted to 20 μg/mL with 0.5% BSA sample diluent as the starting concentration, and then diluted by 3-fold gradient (11 gradients in total). An irrelevant antibody was set as the negative control and incubated at 37° C. for 1 h at 50 μL per well. The plate was washed 3 times with PBST, and the NKP30-his protein was diluted to 0.3 μg/mL. 100 μL was added into each well, and incubated at room temperature for 1 h. The plate was washed 3 times with PBST, and then HRP-labelled his antibody was diluted with the sample diluent at 1:5000. 100 μL was added into each well, and incubated at room temperature for 1 h. The plate was washed 4 times with PBST, 100 μL of TMB substrate was added into each well, and incubated at room temperature without light for 10 min. 100 μL of 1 M HCl solution was added into each well to terminate the color development reaction. The absorbance value of each well in the 96-well plate was determined by selecting the wavelength of 450 nm and the reference wavelength of 570 nm on a multifunctional enzyme marker, and the absorbance value (OD)=OD₄₅₀ₙₘ−OD₅₇₀ₙₘ. The logarithm of antibody concentration was taken as the abscissa, and the measured absorbance value of each well was taken as the ordinate, and the Sigmoidaldose-response (Variable Slope) method (GraphPad Prism software, GraphPad Software, San Diego, California) was selected for nonlinear regression to obtain the binding curve of the target antibody to CD24 and NKP30 proteins at both ends.

- binding result [1]: binds
- EC50 (read off the curve) [2]: ~0.08 µg/mL
B1: DN15-A (bispecific antibody, human IgG1, kappa)
light: EVQLVESGGGLVQPGGSLRLSCAASGITFSRSVMGWFRQAPGKLRELVAGITSDDNTDYADSVKGRFTISRDNSKNTLYLQMNSLRAEDTAVYYCNILPDSRLGWGQGTLVTVSSGGGGSGGGGSGGGGSDIQMTQSPSTLSASVGDRVTITCSASSSVSSMHWYQQKPGKAPKLLIYSTSNLASGVPSRFSGSGSGTEYTLTISSLQPDDFATYYCHHWTSYMYTFGGGTKVEIKRTVAAPSVFIFPPSDEQLKSGTASVVCLLNNFYPREAKVQWKVDNALQSGNSQESVTEQDSKDSTYSLSSTLTLSKADYEKHKVYACEVTHQGLSSPVTKSFNRGEC
heavy 1: not shown
heavy 2: QVQLVQSGSELKKPGASVKVSCKASGYIFTDYAIHWVRQAPGQGLEWMGFINTATGEPTYADDFKGRFVFSLDTSVSTAYLQISSLKAEDTAVYFCTSGVHWGQGTLVTVSSASTKGPSVFPLAPSSKSTSGGTAALGCLVKDYFPEPVTVSWNSGALTSGVHTFPAVLQSSGLYSLSSVVTVPSSSLGTQTYICNVNHKPSNTKVDKKVEPKSCDKTHTCPPCPGGGGSGGGGSPALLLLLLLRPPATRGITCPPPMSVEHADIWVKSYSLYSRERYICNSGFKRKAGTSSLTECVLNKATNVAHWTTPSLKCIRDPALVHQRPAPPSTVTTAGVTPQPESLSPSGKEGGGGSGGGGSAPELLGGPSVFLFPPKPKDTLMISRTPEVTCVVVDVSHEDPEVKFNWYVDGVEVHNAKTKPREEQYNSTYRVVSVLTVLHQDWLNGKEYKCKVSNKALPAPIEKTISKAKGQPREPQVYTLPPSRDELTKNQVSLTCLVKGFYPSDIAVEWESNGQPENNYKTTPPVLDSDGSFFLASKLTVDKSRWQQGNVFSCSVMHEALHNHYTQKSLSLSPGK
notes: Trifunctional antibody against CD24 and NKP30 with IL-15 and IL-15Rα sushi between CH1 and CH2; also called constructed antibody DN15-A; multifunctional antibody

- binding result [1]: binds
- EC50 (read off the curve) [2]: ~0.1 µg/mL
B2: DN15-B (bispecific antibody, human IgG1, kappa)
light: DIQMTQSPSTLSASVGDRVTITCSASSSVSSMHWYQQKPGKAPKLLIYSTSNLASGVPSRFSGSGSGTEYTLTISSLQPDDFATYYCHHWTSYMYTFGGGTKVEIKRTVAAPSVFIFPPSDEQLKSGTASVVCLLNNFYPREAKVQWKVDNALQSGNSQESVTEQDSKDSTYSLSSTLTLSKADYEKHKVYACEVTHQGLSSPVTKSFNRGEC
heavy 1: not shown
heavy 2: EVQLVESGGGLVQPGGSLRLSCAASGITFSRSVMGWFRQAPGKLRELVAGITSDDNTDYADSVKGRFTISRDNSKNTLYLQMNSLRAEDTAVYYCNILPDSRLGWGQGTLVTVSSGGGGSGGGGSGGGGSQVQLVQSGSELKKPGASVKVSCKASGYIFTDYAIHWVRQAPGQGLEWMGFINTATGEPTYADDFKGRFVFSLDTSVSTAYLQISSLKAEDTAVYFCTSGVHWGQGTLVTVSSASTKGPSVFPLAPSSKSTSGGTAALGCLVKDYFPEPVTVSWNSGALTSGVHTFPAVLQSSGLYSLSSVVTVPSSSLGTQTYICNVNHKPSNTKVDKKVEPKSCDKTHTCPPCPGGGGSGGGGSPALLLLLLLRPPATRGITCPPPMSVEHADIWVKSYSLYSRERYICNSGFKRKAGTSSLTECVLNKATNVAHWTTPSLKCIRDPALVHQRPAPPSTVTTAGVTPQPESLSPSGKEGGGGSGGGGSAPELLGGPSVFLFPPKPKDTLMISRTPEVTCVVVDVSHEDPEVKFNWYVDGVEVHNAKTKPREEQYNSTYRVVSVLTVLHQDWLNGKEYKCKVSNKALPAPIEKTISKAKGQPREPQVYTLPPSRDELTKNQVSLTCLVKGFYPSDIAVEWESNGQPENNYKTTPPVLDSDGSFFLASKLTVDKSRWQQGNVFSCSVMHEALHNHYTQKSLSLSPGK
notes: Trifunctional antibody against CD24 and NKP30 with IL-15 and IL-15Rα sushi between CH1 and CH2; also called constructed antibody DN15-B; multifunctional antibody

- binding result [1]: binds
- EC50 (read off the curve) [2]: ~0.2 µg/mL
B3: DN15-D (bispecific antibody, human IgG1, kappa)
light: B2 light
heavy 1: not shown
heavy 2: QVQLVQSGSELKKPGASVKVSCKASGYIFTDYAIHWVRQAPGQGLEWMGFINTATGEPTYADDFKGRFVFSLDTSVSTAYLQISSLKAEDTAVYFCTSGVHWGQGTLVTVSSASTKGPSVFPLAPSSKSTSGGTAALGCLVKDYFPEPVTVSWNSGALTSGVHTFPAVLQSSGLYSLSSVVTVPSSSLGTQTYICNVNHKPSNTKVDKKVEPKSCDKTHTCPPCPGGGGSGGGGSPALLLLLLLRPPATRGITCPPPMSVEHADIWVKSYSLYSRERYICNSGFKRKAGTSSLTECVLNKATNVAHWTTPSLKCIRDPALVHQRPAPPSTVTTAGVTPQPESLSPSGKEGGGGSGGGGSAPELLGGPSVFLFPPKPKDTLMISRTPEVTCVVVDVSHEDPEVKFNWYVDGVEVHNAKTKPREEQYNSTYRVVSVLTVLHQDWLNGKEYKCKVSNKALPAPIEKTISKAKGQPREPQVYTLPPSRDELTKNQVSLTCLVKGFYPSDIAVEWESNGQPENNYKTTPPVLDSDGSFFLASKLTVDKSRWQQGNVFSCSVMHEALHNHYTQKSLSLSPGKGGGGSGGGGSGGGGSGGGGSEVQLVESGGGLVQPGGSLRLSCAASGITFSRSVMGWFRQAPGKLRELVAGITSDDNTDYADSVKGRFTISRDNSKNTLYLQMNSLRAEDTAVYYCNILPDSRLGWGQGTLVTVSS
notes: Trifunctional antibody against CD24 and NKP30 with IL-15 and IL-15Rα sushi between CH1 and CH2; also called constructed antibody DN15-D; multifunctional antibody
